Experimental data reported in the MegaScale stability set (Tsuboyama et al. 2023).

B1: EEHEE_rd4_0363 (parent)
chain: VTVDIKGMEYHFDNPEEAKKFAERMAKELGGELKVENGTLKVE
B2: EEHEE_rd4_0003 (parent)
chain: KKVTINGVEIKFNNPEEAVKFALELAKRLNLRIEFHGDQIKIE

Variants of: B1
Assay: folding stability dG (cDNA display proteolysis); higher = more stable
Settings: PBS, room temperature

Folding stability dG [kcal/mol]: each site, then its substitutions
D4: P 0.415, F 3.35, I 3.73, K 2.77, Q 2.75, R 2.75, V 3.47, E 2.56, C 3.39, A 2.45, W 3.59, L 3.5, T 2.85, Y 3.35, N 2.67, S 2.98, G 1.39, H 2.91, M 3.14
M8: E 1.63, S 1.55, R 2.41, F 2.11, G 0.564, V 2.52, L 1.93, W 1.78, Q 2.05, D 1.24, N 1.58, T 2.26, I 2.46, K 2.44, P -0.136, Y 2.06, H 1.99, A 1.54, C 2.23
K6: M 3.32, F 3.4, P 0.366, Y 2.87, L 2.96, R 2.17, N 2.84, I 1.81, A 2.53, C 3.13, G 2.68, D 2.92, V 1.81, H 2.74, W 2.62, Q 2.34, S 2.31, E 2.26, T 1.5
Y10: W 1.56, S -0.033, C 1.77, T 0.289, M 0.781, G -0.912, F 1.99, D -0.462, E -0.466, L 0.741, Q 0.239, R 0.383, P -0.055, H 0.908, N -0.275, I 1.05, A 0.161, K 0.191, V 0.768
V1: T 2.01, F 2.41, D 0.479, S 1.45, G 0.889, Q 1.33, M 2, E 0.523, Y 2.55, I 2.06, R 1.29, H 1.63, C 2.67, K 1.2, P 0.612, N 1.31, A 1.48, W 2.81, L 2.03
V3: A 0.392, I 1.18, D -0.088, F 0.603, S 0.004, G 0.059, N -0.005, Q 0.039, T 0.19, K -0.032, M 0.639, E -0.171, R -0.231, W 0.119, P 0.059, H -0.104, Y 0.332, C 1.34, L 1.04
T2: F 1.65, N 1.1, S 1.31, W 2.04, A 1.1, M 1.71, L 1.81, I 2.37, V 2.21, R 1.7, K 1.95, E 0.41, P 0.448, H 1.26, Q 1.03, D 0.711, G 0.389, Y 1.52
G7: L 0.238, W 0.811, K 0.294, S 0.507, C 1.72, Q 0.441, R 0.237, N 0.745, Y 0.918, F 0.855, M 0.304, V 0.407, E 0.306, I 0.499, A 0.278, D 0.499, H 0.716, T 0.445, P 0.309
H11: C 2.21, A 1.16, D 0.422
E9: K 3.05, S 2.32, Y 2.6, Q 2.69, F 2.66, R 2.9, D 0.904, W 2.25, A 1.99, G 1.26, P 1.47, H 2.51, T 2.55, L 3.44, I 3.25, N 1.71, V 2.93, C 3.28, M 2.92
I5: Y 1.52, C 1.99, D 0.025, Q 0.05, E 0.155, M 0.754, V 1.88, W 1.49, G 0.128, T 0.201, F 1.44, K 0.088, L 1.23, H 0.78, S 0.289, R 0.036, P -0.167, A 0.423

Variants of: B2
Assay: as above
Settings: PBS, room temperature

Folding stability dG [kcal/mol]: each site, then its substitutions
G37: Y 2.41, D 2.45, E 2.52, K 2.47, R 2.29, S 2.35, T 2.26, I 2.35, Q 2.44, P 2.49, H 2.42, L 2.45, W 2.44, V 2.38, M 2.52, A 2.39, N 2.41, C 2.68, F 2.48
I40: E 1.44, G 1.37, D 1.39, A 1.49, C 2.22, S 1.43, T 1.51, L 2.1, M 1.92, R 1.25, Q 1.39, P 1.24, W 2.02, K 1.5, Y 1.64, V 2.07, F 1.78, H 1.56, N 1.44
Q39: P 1.77, Y 3.04, L 2.95, A 2.62, F 2.91, M 2.88, W 3.07, D 2.64, H 2.91, I 3.05, E 2.92, S 2.75, R 2.52, K 2.33, V 3.18, T 3.22, C 3.11, G 2.52, N 2.82
E43: P 1.83, I 3.32, C 3.85, N 2.6, F 3.59, Y 3.45, V 3.28, D 2.5, A 2.59, M 3.13, S 2.99, W 3.45, R 2.64, T 3.27, L 3.23, H 2.82, G 2.8, Q 2.66, K 2.65
K41: H 2.49, R 2.8, V 3, N 2.52, E 2.1, W 2.85, L 2.86, M 2.71, T 2.69, D 1.91, I 3.21, P 1.3, C 3.17, F 3, S 2.46, G 1.73, Q 2.27, A 2.36, Y 2.94
I42: D 1.36, W 1.58, K 1.43, G 1.26, V 2.31, R 1.44, E 1.3, M 2.25, T 1.38, Y 1.6, P 1.27, L 3.07, F 2.22, S 1.47, H 1.63, A 1.29, Q 1.24, N 1.74
H36: R 2.52, Y 2.75, S 2.66, P 1.71, N 2.58, M 2.72, V 2.89, T 2.7, W 2.73, Q 2.56, L 2.88
D38: K 2.15, I 2.49, E 2.3, R 2.01, P 2.1, F 2.7, S 2.32, C 3.49, L 2.33, Y 2.45, N 2.61, W 2.73, G 2.31, Q 2.25, T 2.29, A 2.15, H 2.25, M 2.34, V 2.23
